Results as given in article PMC5510646 (The Biochemical journal, 2017).
Blank lines part the entries; values can stand above or below the binder they belong to.

B1: Grem2 K66A/K69A (natural protein)
chain: RKNRPAGAIPSPYKDGSSNNSERWHHQIKEVLASSQEALVVTERAYLASDWCKTQPLRQTVSEEGCRSRTILNRFCYGQCNSFYIPRHVKKEEDSFQSCAFCKPQRVTSVIVELECPGLDPPFRIKKIQKVKHCRCMSVNLSDSDKQ
B2: Grem2 K111A/K112A (natural protein)
chain: RKNRPAGAIPSPYKDGSSNNSERWHHQIKEVLASSQEALVVTERKYLKSDWCKTQPLRQTVSEEGCRSRTILNRFCYGQCNSFYIPRHVAAEEDSFQSCAFCKPQRVTSVIVELECPGLDPPFRIKKIQKVKHCRCMSVNLSDSDKQ
B3: Grem2 K147A/K148A (natural protein)
chain: RKNRPAGAIPSPYKDGSSNNSERWHHQIKEVLASSQEALVVTERKYLKSDWCKTQPLRQTVSEEGCRSRTILNRFCYGQCNSFYIPRHVKKEEDSFQSCAFCKPQRVTSVIVELECPGLDPPFRIAAIQKVKHCRCMSVNLSDSDKQ
B4: Grem2 K151A/K153A (natural protein)
chain: RKNRPAGAIPSPYKDGSSNNSERWHHQIKEVLASSQEALVVTERKYLKSDWCKTQPLRQTVSEEGCRSRTILNRFCYGQCNSFYIPRHVKKEEDSFQSCAFCKPQRVTSVIVELECPGLDPPFRIKKIQAVAHCRCMSVNLSDSDKQ

Columns and labels:
[1] = target: the molecule itself; test: SEC
[2] = target: B2; test: SPR
[3] = target: B3; test: SPR
[4] = target: T1, Gremlin-2 wild type (UniProt O88273 22-168); test: SPR
T1 sequence: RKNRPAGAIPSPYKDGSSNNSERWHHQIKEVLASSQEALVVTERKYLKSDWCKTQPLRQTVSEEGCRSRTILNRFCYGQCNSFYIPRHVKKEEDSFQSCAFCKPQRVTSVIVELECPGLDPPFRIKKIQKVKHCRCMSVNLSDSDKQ

[5] = target: T2, Grem2 K147A/K148A/K151A/K153A (UniProt O88273 22-168, K147A | K148A | K151A | K153A); test: SPR
T2 sequence: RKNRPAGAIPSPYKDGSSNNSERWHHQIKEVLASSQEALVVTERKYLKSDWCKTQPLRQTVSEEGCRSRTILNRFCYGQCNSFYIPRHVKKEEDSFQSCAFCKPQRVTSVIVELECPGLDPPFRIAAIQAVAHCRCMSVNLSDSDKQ

[6] = target: T3, Grem2 K66A/K69A/K147A/K148A (UniProt O88273 22-168, K66A | K69A | K147A | K148A); test: SPR
T3 sequence: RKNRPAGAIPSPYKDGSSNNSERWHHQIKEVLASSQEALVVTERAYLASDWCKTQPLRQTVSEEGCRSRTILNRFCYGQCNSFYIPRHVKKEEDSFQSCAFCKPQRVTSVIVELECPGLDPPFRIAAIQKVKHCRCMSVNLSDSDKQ

[7] = target: B4; test: SPR
[8] = target: B1; test: SPR
[9] = target: T4, Grem2 K111A/K112A/K151A/K153A (UniProt O88273 22-168, K111A | K112A | K151A | K153A); test: SPR
T4 sequence: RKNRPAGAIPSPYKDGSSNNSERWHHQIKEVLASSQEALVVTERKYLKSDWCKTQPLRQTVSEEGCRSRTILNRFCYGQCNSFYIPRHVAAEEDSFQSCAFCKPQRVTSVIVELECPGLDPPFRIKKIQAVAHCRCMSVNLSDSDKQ

Binder: B1
stoichiometry N [1]: 2

Binder: B2
stoichiometry N [1]: 2

Binder: B3
stoichiometry N [1]: 2

Binder: B4
stoichiometry N [1]: 2

Kd [2]: 1.77 nM
Kd [3]: 1.98 nM
Kd [4]: 1.42 nM
Kd [5]: 4.4 nM
Kd [6]: 5.66 nM
Kd [7]: 1.3 nM
Kd [8]: 2.4 nM
Kd [9]: 2.11 nM
B5: Recombinant mature BMP2 (ligand, UniProt P12643 283-396, looked up)
chain: QAKHKQRKRLKSSCKRHPLYVDFSDVGWNDWIVAPPGYHAFYCHGECPFPLADHLNSTNHAIVQTLVNSVNSKIPKACCVPTELSAISMLYLDENEKVVLKNYQDMVVEGCGCR
